This is an account of results in US12209122.

This assay has as its target the two scFvs (16-22-H05-sc02 and 16-22-H05-sc04). As to the kind of experiment: competition ELISA, coated scFv, biotinylated TNFα, unlabeled TNFβ against unlabeled TNFα.

B1: recombinant human TNFβ (Peprotech, Cat. No. 300-01B) (ligand, UniProt P01374 35-205, looked up)
chain: LPGVGLTPSAAQTARQHPKMHLAHSTLKPAAHLIGDPSKQNSLLWRANTDRAFLQDGFSLSNNSLLVPTSGIYFVYSQVVFSGKAYSPKATSSPLYLAHEVQLFSSQYPFHVPLLSSQKMVYPGLQEPWLHSMYHGAAFQLTQGDQLSTHTDGIPHLVLSPSTVFFGAFAL
B1 had a selectivity for binding to TNFα over TNFβ (fold) of over 20000 fold.
